The target of experiment [1] is inducible lysine decarboxylase LdcI (Escherichia coli) (UniProt P0A9H3). Description: cryo-EM structure; LdcI-LARA complex, 7.5 Å; 7.3 µM LdcI with 73 µM LARA (1:10), 15 min at room temperature, 50 mM Mes pH 6.5, 100 mM NaCl, 0.2 mM PLP, 1 mM DTT, 0.01% glutaraldehyde; D5 symmetry imposed.
The target of a further experiment is LdcI (Escherichia coli) (UniProt P0A9H3). As to conditions: cited from earlier work.
LdcI (Escherichia coli), sequence (P0A9H3 whole entry): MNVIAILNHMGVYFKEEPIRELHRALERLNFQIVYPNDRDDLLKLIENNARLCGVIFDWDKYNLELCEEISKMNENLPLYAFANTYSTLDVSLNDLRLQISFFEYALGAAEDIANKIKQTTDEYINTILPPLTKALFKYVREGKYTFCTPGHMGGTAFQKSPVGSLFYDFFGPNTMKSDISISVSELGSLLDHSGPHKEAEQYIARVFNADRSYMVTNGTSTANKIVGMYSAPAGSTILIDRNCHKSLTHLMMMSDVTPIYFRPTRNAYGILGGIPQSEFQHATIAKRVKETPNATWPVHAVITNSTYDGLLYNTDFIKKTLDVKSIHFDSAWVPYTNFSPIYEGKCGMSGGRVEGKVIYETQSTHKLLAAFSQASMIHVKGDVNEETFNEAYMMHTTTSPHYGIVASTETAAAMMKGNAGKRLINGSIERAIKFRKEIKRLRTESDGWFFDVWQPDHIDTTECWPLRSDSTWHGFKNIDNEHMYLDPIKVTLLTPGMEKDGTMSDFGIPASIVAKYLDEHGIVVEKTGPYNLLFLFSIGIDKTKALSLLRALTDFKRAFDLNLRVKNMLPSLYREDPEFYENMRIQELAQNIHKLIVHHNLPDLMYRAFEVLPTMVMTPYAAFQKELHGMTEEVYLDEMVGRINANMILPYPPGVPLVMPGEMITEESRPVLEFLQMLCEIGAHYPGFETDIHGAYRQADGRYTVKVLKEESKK

inducible lysine decarboxylase LdcI (Escherichia coli), sequence (P0A9H3 whole entry): as above
RavA, sequence (P31473 whole entry): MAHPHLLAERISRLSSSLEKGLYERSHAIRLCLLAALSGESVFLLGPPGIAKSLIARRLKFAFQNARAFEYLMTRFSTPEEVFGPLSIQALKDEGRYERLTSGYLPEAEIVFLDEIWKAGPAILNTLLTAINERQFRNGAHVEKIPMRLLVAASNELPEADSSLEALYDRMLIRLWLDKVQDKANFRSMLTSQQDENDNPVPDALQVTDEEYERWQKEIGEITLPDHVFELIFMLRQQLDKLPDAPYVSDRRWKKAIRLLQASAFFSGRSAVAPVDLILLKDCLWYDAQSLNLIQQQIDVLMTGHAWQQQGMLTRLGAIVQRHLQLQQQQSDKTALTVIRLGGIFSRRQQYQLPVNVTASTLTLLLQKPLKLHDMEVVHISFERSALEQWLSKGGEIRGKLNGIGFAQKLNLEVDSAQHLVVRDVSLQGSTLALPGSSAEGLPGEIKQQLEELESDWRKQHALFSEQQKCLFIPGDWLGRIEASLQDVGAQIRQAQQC

Turning to “LARA domain of RavA (LdcI associating domain of RavA) (from UniProt P31473 1-498) (domain or fragment)”, the stoichiometry N (LARA domain per LdcI protomer) in experiment [1] worked out at 1. The Kd is the constant that tells how readily two partners part at equilibrium. For RavA (from UniProt P31473), the dissociation constant (Kd) with LdcI (Escherichia coli) is 20 nM.

The record behind these values is paper PMC4145799.
